Data: patent US20240059784A1 (Eli Lilly, published 2024)
Residue numbers refer to the chain shown, from its start. Names may count otherwise.

T1: cynomolgus TfR ECD (cynomolgus)
T1 chain: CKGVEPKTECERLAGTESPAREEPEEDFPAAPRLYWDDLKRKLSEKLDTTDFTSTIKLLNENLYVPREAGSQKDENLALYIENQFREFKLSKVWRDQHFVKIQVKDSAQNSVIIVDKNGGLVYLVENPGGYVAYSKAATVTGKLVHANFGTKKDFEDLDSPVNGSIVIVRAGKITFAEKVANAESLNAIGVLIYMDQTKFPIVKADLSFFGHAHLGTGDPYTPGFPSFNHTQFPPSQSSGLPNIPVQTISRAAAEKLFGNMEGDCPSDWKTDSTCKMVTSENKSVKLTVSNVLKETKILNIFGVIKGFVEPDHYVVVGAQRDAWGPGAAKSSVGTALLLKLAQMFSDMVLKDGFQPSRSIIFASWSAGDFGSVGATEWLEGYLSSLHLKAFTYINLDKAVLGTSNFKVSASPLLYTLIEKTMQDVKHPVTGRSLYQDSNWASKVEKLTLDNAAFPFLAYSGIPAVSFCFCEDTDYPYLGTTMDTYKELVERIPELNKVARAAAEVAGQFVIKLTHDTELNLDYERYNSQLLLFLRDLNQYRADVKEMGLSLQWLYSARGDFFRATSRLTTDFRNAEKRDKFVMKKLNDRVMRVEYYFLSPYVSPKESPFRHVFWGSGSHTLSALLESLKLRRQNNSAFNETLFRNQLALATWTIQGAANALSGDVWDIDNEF

B1: TBP14-MAPT siRNA (dsRNA No. 38 in Table 11b) (antibody)
heavy: EVQLVESGGGLVKPGGSLRLSCVASGFTFSSYSMNWVRQAPGKGLEWVSSISSSSSYIYYADSVKGRFTISRDNAKNSLYLQMNSLRAEDTAVYYCARRHGYSNSDAFDNWGQGTLVTVSSASTKGPSVFPLAPCSRSTSESTAALGCLVKDYFPEPVTVSWNSGALTSGVHTFPAVLQSSGLYSLSSVVTVPSSSLGTKTYTCNVDHKPSNTKVDKRVESKYGPPCPPCPAPEAAGGPSVFLFPPKPKDTLMISRTPEVTCVVVDVSQEDPEVQFNWYVDGVEVHNAKTKPREEQFNSTYRVVSVLTVLHQDWLNGKEYKCKVSNKGLPSSIEKTISKAKGQPREPQVSTLPPSQEEMTKNQVSLMCLVYGFYPSDICVEWESNGQPENNYKTTPPVLDSDGSFFLYSVLTVDKSRWQEGNVFSCSVMHEALHNHYTQKSLSLSLG
light: DIQMTQSPSAMSASVGDRVTITCRASQGISHYLVWFQQKPGKVPKRLIYAASSLQSGVPSRFSGSGSGTEFTLTISSLQPEDFATYYCLQHNSYPWTFGQGTKVEIKRTVAAPSVFIFPPSDEQLKSGTASVVCLLNNFYPREAKVQWKVDNALQSGNSQESVTEQDSKDSTYSLSSTLTLSKADYEKHKVYACEVTHQGLSSPVTKSFNRGEC
chain: ESKYGPPCPPCPAPEAAGGPSVFLFPPKPKDTLMISRTPEVTCVVVDVSQEDPEVQFNWYVDGVEVHNAKTKPREEQFNSTYRVVSVLTVLHQDWLNGKEYKCKVSNKGLPSSIEKTISKAKGQPREPQVYTLPPSQGDMTKNQVQLTCLVKGFYPSDICVEWESNGQPENNYKTTPPVLDSDGSFFLASRLTVDKSRWQEGNVFSCSVMHEALHNHYTQKSLSLSLG
modifications: MAPT siRNA (dsRNA No. 38) conjugated through a linker at the engineered cysteine (A378C, EU numbering, by the name in Table 6b)
notes: Protein-siRNA conjugate of TBP14; also called TBP14-MAPT siRNA conjugate
B2: TBP14-SNCA siRNA (dsRNA No. 10 in Table 11a) (antibody)
heavy: B1 heavy
light: B1 light
chain: B1 chain
modifications: SNCA siRNA (dsRNA No. 10) conjugated through a linker at the engineered cysteine (A378C, EU numbering, by the name in Table 6b)
notes: Protein-siRNA conjugate of TBP14; also called TBP14-SNCA siRNA conjugate
B3: TBP14 (TBD4-one arm heteromab, A378C) (antibody, human IgG4 S228P, kappa, F234A L235A)
heavy: B1 heavy
light: B1 light
chain: B1 chain
notes: One-armed antibody: two heavy chains (HC1 full, HC2 Fc only) and one light chain; no LC2
B4: TBP5 (TBD5 Fab-hIgG4PAA Fc) (antibody, V domains shown)
VH: EVQLVESGGGLVQPGGSLRLSCAASGFTFRTYWMHWVRQAPGKGLLWVSRINGDGSRTNYADSVKGRFTISRDNAKKTLYLQMNSLRAEDTAVYFCARSSYAFDVWGQGTMVTVSS
VL: DVVMTQTPLSLPVTPGEPASISCRSSQSLLDSDDGSTYLDWYLQKPGQSPQLLIYLLSNRASGVPDRFSGSGSGTVFTLKISSVEAADVGVYYCMQRIEFPLTFGGGTKVEIKR
notes: Fab-Fc format, one HC and one LC
B5: TBP6 (TBD6 Fab-hIgG4PAA Fc) (antibody, V domains shown)
VH: B4 VH with L46V, G53S, K77N, F95Y, M111L
VL: B4 VL with V2I, V76D, S83R, A87E
notes: as for B4
B6: TBP1 (TBD1 Fab-hIgG4PAA Fc) (antibody, V domains shown)
VH: EVQLVESGGGLVKPGGSLRLSCVASGFTFSSYSMNWVRQAPGKGLEWVSSISRSSSYIYYADSVKGRFTISRDNAKNSLYLQMNSLRAEDTAVYYCAREHGYSNSDAFDIWGQGTLVTVSS
VL: DIQMTQSPSAMSASVGDRVTITCRASQGISNYLAWFQQKPGKVPKRLIYAASSLQSGVPSRFSGSGSGTEFTLTISSLQPEDFATYYCLQHNSYPRTFGQGTKVEIKR
B7: TBP3 (TBD3 Fab-hIgG4PAA Fc) (antibody, V domains shown)
VH: B6 VH with E99I
VL: B6 VL with N31H, A34V
notes: as for B4
B8: TBP15-MAPT siRNA (dsRNA No. 39 in Table 11b) (antibody)
heavy: B1 heavy with S128C, C379A
light: B1 light
chain: B1 chain with C160A
modifications: MAPT siRNA (dsRNA No. 39) conjugated through a linker at the engineered cysteine (S124C, EU numbering, by the name in Table 6b)
notes: Protein-siRNA conjugate of TBP15

Each binder was assayed against T2, human TfR ECD (His-tagged) (human, UniProt P02786 89-760) (assay: SPR (Biacore 8K), 37 C; TfR ECD amine-coupled to CM4 chip, TBP as analyte; multi-cycle kinetics, 2-state fit; n = 3).
T2 construct: also called hTfR-ECD-6His; his-tagged hTfR-ECD
Protocol: (§1) Target human and cynomolgous TfR ECD's were immobilized on a CM4 chip (Cytiva P/N 29104989) using standard NHS-EDC amine coupling. The TfR binding proteins were prepared at a final concentration of 0.3, 0.1, 0.033, 0.01, 0.0033, 0.001, 0.00033, 0.0001 μM respectively by dilution of stock solution into running buffer.
(§2) Binding analysis was performed in a multi-cycle kinetics manner. Each analysis cycle consists of (1) injection of the lowest to highest concentration proteins over all Fc at 50 μL/min for 140 seconds followed by return to buffer flow for 400 seconds to monitor dissociation phase; (2) regeneration of chip surfaces with injection of 3M magnesium chloride, for 30 seconds at 100 μL/min over all cells; and (3) equilibration of chip surfaces with a 50 μL (30-sec) injection of HBS-EP+. Data were processed using standard double-referencing and fit to a 2-state binding model using Biacore 8K Evaluation software, to determine the association rate (kₒₙ, M⁻¹s⁻¹ units), dissociation rate (koff, s⁻¹ units), and Rₘₐₓ (RU units). The equilibrium dissociation constant (KD) is calculated from the relationship KD=koff/kₒₙ, and is in molar units.

Going from B1 to B2, the Kd rises from 258 nM to 541 nM (2.1-fold).

Going from B3 to B4, the Kd falls from 154 nM to 4.25 nM (36-fold).

Compared with B5, B6 is 2.3-fold lower in Kd: 2.25 nM for the first, 0.966 nM for the second. The second binds more tightly here.

In the case of B7, the Kd is reported as 0.005 nM.

These binders were tested against T3, cynomolgus TfR ECD (cynomolgus) in the same assay as above.
T3 construct: extracellular domain; amine-coupled in the 37 C assay; also called Cyno TfR; His-tagged cynomolgus TfR ECD
Protocol: as §1, §2

B1 and B3 are within 1.5-fold of each other in Kd: 448 nM for the first, 300 nM for the second.

Binder B8 has a Kd of 199 nM.

Target: T1, cynomolgus TfR ECD
Assay: as above
Protocol: as §1, §2

First: B4
Second: B5
The Kd of the first is 1.7-fold higher: 156 nM for the first, 92.5 nM for the second.

In the case of B7, the Kd is reported as 0.254 nM.

The binders below were run against T2, human TfR ECD (His-tagged) (assay: SPR (Biacore 8K), 25 C; His-tagged TfR ECD captured by anti-His antibody, TBP as analyte; single-cycle kinetics, 2-state fit).
Protocol: (§3) An anti-His antibody was immobilized on a CM5 chip (Cytiva P/N 29104988) using standard NHS-EDC amine coupling on all four flow cells (Fc). Target (human or cynomolgus TfR ECD) were prepared in the running buffer at final concentration of 500 μg/mL.
(§4) Binding analysis was performed in a single-cycle kinetics manner. Each analysis cycle consists of (1) capturing the target (His-tagged human or cynomolgus TfR ECD) samples on separate flow cells (Fc2, Fc3 and Fc4); (2) injection of the lowest to highest concentration of antibodies or proteins over all Fc at 30 μL/min for 900 seconds followed by return to buffer flow for 1800 seconds to monitor dissociation phase; (3) regeneration of chip surfaces with injection of 10 mM glycine, pH 1.5, for 30 seconds at […] over all cells; and (4) equilibration of chip surfaces with a 10 μL (60-sec) injection of HBS-EP+. Data were processed using standard double-referencing and fit to a 2-state binding model using Biacore 8K Evaluation software, to determine the association rate (kₒₙ, M⁻¹s⁻¹ units), dissociation rate (koff, s⁻¹ units), and Rₘₐₓ (RU units). The equilibrium dissociation constant (KD) is calculated from the relationship KD=koff/kₒₙ, and is in molar units.
Target sequence in this assay (P02786 other isoform, or with tags, fused parts or gaps): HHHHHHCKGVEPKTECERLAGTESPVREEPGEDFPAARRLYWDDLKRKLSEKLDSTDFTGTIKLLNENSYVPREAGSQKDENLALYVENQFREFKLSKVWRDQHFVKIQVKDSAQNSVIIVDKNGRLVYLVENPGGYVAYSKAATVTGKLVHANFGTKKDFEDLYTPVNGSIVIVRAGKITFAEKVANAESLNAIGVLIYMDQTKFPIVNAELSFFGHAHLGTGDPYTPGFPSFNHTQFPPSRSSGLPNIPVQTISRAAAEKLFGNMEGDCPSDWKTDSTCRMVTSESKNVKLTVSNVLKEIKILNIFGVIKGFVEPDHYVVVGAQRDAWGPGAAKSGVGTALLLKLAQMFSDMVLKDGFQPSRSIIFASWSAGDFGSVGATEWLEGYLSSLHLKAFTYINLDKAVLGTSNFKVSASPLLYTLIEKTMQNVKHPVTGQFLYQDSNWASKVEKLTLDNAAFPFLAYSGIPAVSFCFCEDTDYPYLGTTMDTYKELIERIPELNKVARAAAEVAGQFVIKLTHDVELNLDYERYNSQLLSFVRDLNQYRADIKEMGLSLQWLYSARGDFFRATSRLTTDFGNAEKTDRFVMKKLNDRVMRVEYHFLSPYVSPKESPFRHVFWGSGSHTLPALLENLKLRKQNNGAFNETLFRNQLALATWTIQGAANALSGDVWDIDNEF

First: B4
Second: B5
The Kd of the first is 9.8-fold higher: 590 pM for the first, 60 pM for the second.

Going from B6 to B7, the Kd falls from 110 pM to 0.048 pM (2300-fold). The second binds more tightly here.

Target: T1, cynomolgus TfR ECD
Assay: as above
Protocol: as §3, §4

Going from B4 to B5, the Kd rises from 1.47 nM to 7.7 nM (5.2-fold). The first binds more tightly here.

First: B6
Second: B7
The Kd of the first is 9700-fold higher: 145 nM for the first, 0.015 nM for the second. The second binds more tightly here.

The binders below were run against T4, human TfR (cell-bound) (human, UniProt P02786 1-760) (assay: flow cytometry on hCMEC-D3 cells (endogenous human TfR), on ice, PE-labeled secondary).
T4 construct: Endogenous receptor on hCMEC-D3 cells (stated); also called hTFR; human transferrin receptor on hCMEC-D3 cells
T4 sequence (P02786 whole entry): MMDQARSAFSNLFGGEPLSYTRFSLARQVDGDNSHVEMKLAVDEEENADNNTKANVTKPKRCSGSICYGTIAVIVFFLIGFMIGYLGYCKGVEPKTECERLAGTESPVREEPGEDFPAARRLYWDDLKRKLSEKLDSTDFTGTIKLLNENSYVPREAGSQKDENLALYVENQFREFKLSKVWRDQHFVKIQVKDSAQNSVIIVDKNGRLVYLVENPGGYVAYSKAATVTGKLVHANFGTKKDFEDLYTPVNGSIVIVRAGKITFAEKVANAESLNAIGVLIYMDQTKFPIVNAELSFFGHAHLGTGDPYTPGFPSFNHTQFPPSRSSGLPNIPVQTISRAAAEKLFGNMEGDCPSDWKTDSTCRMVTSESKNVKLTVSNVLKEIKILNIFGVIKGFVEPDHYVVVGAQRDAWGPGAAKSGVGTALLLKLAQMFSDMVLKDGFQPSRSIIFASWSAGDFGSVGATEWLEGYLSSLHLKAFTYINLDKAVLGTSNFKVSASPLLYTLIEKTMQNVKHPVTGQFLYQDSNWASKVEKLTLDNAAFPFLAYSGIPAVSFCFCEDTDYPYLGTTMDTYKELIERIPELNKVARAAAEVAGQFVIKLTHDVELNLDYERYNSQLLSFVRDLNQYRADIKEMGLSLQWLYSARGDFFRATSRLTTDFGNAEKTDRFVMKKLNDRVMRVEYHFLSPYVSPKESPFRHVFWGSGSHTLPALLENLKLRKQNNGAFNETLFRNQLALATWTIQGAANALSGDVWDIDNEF
Protocol: (§5) Human endothelial line hCMEC-D3 (EMD Millipore SC066), endogenously expressing human TfR and MDCK cell line (ATCC CCL-34), engineered to express cynomolgus TfR were utilized to evaluate antibody/protein binding to cell-bound TfR. Cells were grown and maintained at submaximal confluence and detached from cultureware using Accutase cell detachment solution, washed, and allocated at 50000 cells per well for assessment of binding. Cells were treated with a viability stain then subsequently incubated with titrated concentrations of TfR binding proteins on ice. Cells were washed and binding of test antibodies or proteins was detected using a PE-labeled secondary reagent. Cells were then washed and read on the same day using a BioRad ZE5 cytometer. Analysis was performed post-acquisition in FlowJo, analyzing fluorescence of single, viable, non-debris events. EC50 values were derived by plotting geometric median PE intensity values across a given sample titration and fitting a sigmoidal (4PL) response curve in GraphPad Prism 8.3.0.

Compared with B1, B2 is 2.6-fold lower in EC50: 764 nM for the first, 298 nM for the second. The second is the more potent here.

First: B8
Second: B4
The EC50 of the first is 16-fold higher: 75.6 nM for the first, 4.83 nM for the second.

Compared with B5, B6 is 2.6-fold lower in EC50: 1.2 nM for the first, 0.47 nM for the second. The second is the more potent here.

With B7 the EC50 was 0.14 nM.

These binders were tested against T5, cynomolgus TfR (on MDCK cells) (cynomolgus, UniProt H9EXL1 1-760 (rhesus entry)) (assay: flow cytometry on MDCK cells engineered to express cynomolgus TfR, on ice, PE-labeled secondary).
T5 construct: whole, on cells; also called Cyno MDCK
Protocol: as §5

Going from B1 to B2, the EC50 falls from 453 nM to 225 nM (2-fold).

First: B8
Second: B4
The EC50 of the first is 35-fold higher: 57.1 nM for the first, 1.63 nM for the second.

Going from B5 to B6, the EC50 rises from 0.76 nM to 510 nM (670-fold).

B7 showed an EC50 of 0.15 nM.

The binders below were run against T2, human TfR ECD (His-tagged) (assay: SPR (Biacore 8K), 37 C; TfR ECD amine-coupled to CM4 chip, TBP as analyte; multi-cycle kinetics, 2-state fit; n = 3; conjugated to MAPT siRNA (dsRNA No. 39 in Table 11b)).
Protocol: as §1, §2

B8 gave a Kd of 213 nM.
